Here are results for one molecule from article PMC6467385, “ER intrabody-mediated inhibition of interferon α secretion by mouse macrophages and dendritic cells” (PLoS ONE, 2019).

The assay addresses T1, mouse IFNα4 without tag (Mus musculus, UniProt P07351).
T1 construct: Expressed with an N-terminal mouse IgG signal peptide (HVM06_MOUSE) and a C-terminal TEV site before the tags; Produced in a glycosylation deficient cell line; also called Interferon α; not shown: Twin-Strep-tag, C-terminal, cleaved; His8, C-terminal, cleaved
Nature of the assay: BLI; Octet Red96; αIFNα-ab covalently coupled (EDC/NHS) to Ni-NTA tips, increasing concentrations of IFNα4 in solution; kinetic buffer 0.2% BSA in PBS with 0.05% Tween 20; association 800 s, dissociation 1800 s; 1:1 interaction model. The conditions noted are these: both partners purified.

T1 sequence (P07351 25-186): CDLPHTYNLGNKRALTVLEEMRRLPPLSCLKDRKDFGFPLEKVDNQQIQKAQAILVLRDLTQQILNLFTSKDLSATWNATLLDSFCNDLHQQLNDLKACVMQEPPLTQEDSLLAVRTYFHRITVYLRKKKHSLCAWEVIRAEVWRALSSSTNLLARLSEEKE

B1: soluble scFv αIFNα-ab (scFv, V domains shown)
VH: EVQLVESGGGLVRPGGSLKLSCTASGFTFSDFDMAWVRQAPTRGLEWVASISSGPANTHYRGSVRGRFTGSRNDAKSTLYLQMDSLRSEDTATYYCARPFGSGYYFDYWGQGVVVTVSS
VL: DTVLTQSPALAVSLGQRVTISCKASESVSSSTSNYMHWYQQKPGQRPKLLIYLASNLESGVPARFSGSGSGTDFILNIDPVEADDVATYFCQQSWNDPPTFGSGTKVELK
notes: VH of the rat anti-mouse IFNα hybridoma antibody 4EA1; linker, printed as (GGGGS)3; VL (kappa) of the rat anti-mouse IFNα hybridoma antibody 4EA1; Order VH-(GGGGS)3-VL; made with a signal peptide (secreted); also called anti-IFNα scFv; soluble form of the intrabody; not shown: His6, C-terminal, kept
In general, Kd refers to the concentration at which binding is half-saturated. A lower Kd goes with higher affinity. One may read the koff as the first-order rate constant of dissociation. Low readings indicate slow dissociation, high ones fast dissociation. A word on the kon: it is the rate constant with which the complex forms. Low values mean slower complex formation, high ones faster complex formation. Take B1: the Kd is 38.6 nM, the off-rate constant (koff) is 0.00023 s⁻¹ and the kon stood at 5970 M⁻¹ s⁻¹.
